Results: publication PMC2757719
pKd: −log10 of the molar value.

Columns and labels:
Assay in all cases: EMSA
Settings in all cases: 20 mM Tris pH 7.5, 200 mM NaCl, 1 ug salmon sperm DNA, 10 fmol probe, 20 ul, room temperature 10 min; 10% polyacrylamide gel
[1] = target: EBNA1 452-641;USP7 (Epstein-Barr virus;human?) (UniProt P03211+Q93009)
[2] = target: T1, EBNA1 395-641 (Epstein-Barr virus) (UniProt P03211)
T1 sequence: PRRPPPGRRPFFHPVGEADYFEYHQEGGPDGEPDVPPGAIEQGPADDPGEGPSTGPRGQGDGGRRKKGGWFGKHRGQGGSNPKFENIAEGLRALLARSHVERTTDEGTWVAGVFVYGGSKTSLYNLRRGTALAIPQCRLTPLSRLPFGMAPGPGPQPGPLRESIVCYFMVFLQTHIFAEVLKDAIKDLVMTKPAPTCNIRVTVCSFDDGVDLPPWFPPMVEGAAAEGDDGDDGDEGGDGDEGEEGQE

[3] = target: EBNA1 395-641;USP7 (Epstein-Barr virus;human?) (UniProt P03211+Q93009)
Chain of EBNA1 395-641;USP7 (Epstein-Barr virus;human?) (Q93009 whole entry, one chain of several): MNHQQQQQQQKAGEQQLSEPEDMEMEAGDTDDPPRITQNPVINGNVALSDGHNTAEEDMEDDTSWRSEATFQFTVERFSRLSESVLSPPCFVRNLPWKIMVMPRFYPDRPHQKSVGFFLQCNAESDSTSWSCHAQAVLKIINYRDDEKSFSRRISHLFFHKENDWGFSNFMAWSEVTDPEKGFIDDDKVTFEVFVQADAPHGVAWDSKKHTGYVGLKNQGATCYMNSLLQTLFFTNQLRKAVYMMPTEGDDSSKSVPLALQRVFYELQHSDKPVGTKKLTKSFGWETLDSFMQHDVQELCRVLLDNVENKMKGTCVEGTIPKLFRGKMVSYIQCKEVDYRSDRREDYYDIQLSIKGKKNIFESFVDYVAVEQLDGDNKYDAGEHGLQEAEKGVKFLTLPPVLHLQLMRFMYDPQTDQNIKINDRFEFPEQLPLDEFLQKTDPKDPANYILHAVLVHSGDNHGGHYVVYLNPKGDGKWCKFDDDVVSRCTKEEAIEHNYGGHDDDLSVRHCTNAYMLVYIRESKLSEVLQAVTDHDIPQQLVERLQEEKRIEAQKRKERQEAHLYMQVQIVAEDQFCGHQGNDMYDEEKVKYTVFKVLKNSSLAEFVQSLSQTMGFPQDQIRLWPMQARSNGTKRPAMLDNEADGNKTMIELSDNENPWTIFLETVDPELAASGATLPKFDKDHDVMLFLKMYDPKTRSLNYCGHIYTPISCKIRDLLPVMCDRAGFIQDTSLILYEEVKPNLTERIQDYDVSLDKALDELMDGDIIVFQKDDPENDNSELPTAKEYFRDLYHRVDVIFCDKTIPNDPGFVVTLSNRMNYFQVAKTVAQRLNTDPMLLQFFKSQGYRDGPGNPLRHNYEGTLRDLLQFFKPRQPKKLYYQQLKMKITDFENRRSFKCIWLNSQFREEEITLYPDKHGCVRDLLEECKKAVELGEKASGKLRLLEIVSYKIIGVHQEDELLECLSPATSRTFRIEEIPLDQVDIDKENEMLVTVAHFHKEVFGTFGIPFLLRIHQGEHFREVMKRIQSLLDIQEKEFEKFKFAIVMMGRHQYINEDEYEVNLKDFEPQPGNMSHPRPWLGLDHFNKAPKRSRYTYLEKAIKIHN

Chain of EBNA1 452-641;USP7 (Epstein-Barr virus;human?) (Q93009 whole entry, one chain of several): as above

**Q.** Which results are given for “CGGGAAGCATATGCTACCCG (double strand) [DS site 1 20-mer]”?
**A.** binding signal (fold increase vs P3 alone) [1]: 4; pKd [2]: 6.63; pKd [3]: 8.40
